Data: US20180244785A1 (MERRIMACK PHARMACEUTICALS, published 2018)
Substitutions are numbered along the chain they refer to.

B1: Vk9 combined with the VH of Ab15 (antibody, V domains shown)
VH: EVQLLESGGGVVQPGRSLRLSCAASGFTFSSYAMHWVRQAPGKGLEWVAVISYDGSNKYYADSVKGRFTISRDNSKNTLSLQMNSLRVEDTAIYYCVRGAGRGYTYGPDGFDIWGQGTMVTVSS
VL: DIVMTQSPDSLAVSLGERATINCKSSQSLLHSDGKTYVYWYQQKPGQPPKLLIYELSNRFSGVPDRFSGSGSGTDFTLTISSLQAEDVAVYYCMQYIEAPLTFGGGTKVEIK
notes: captured on anti-human IgG Fc tips
B2: Vk2 combined with the VH of Ab15 (antibody, V domains shown)
VH: B1 VH
VL: DIVMTQTPLSLSVTPGQPASISCTSSRSLLHSDGKTYVYWYLQKPGQPPQLLIYELSNRFSGVPDRFSGSGSRTDFTLKISRVEAEDVGVYYCMQYIEAPLTFGGGTKVEIK
notes: as for B1
B3: Vk1 combined with the VH of Ab15 (antibody, V domains shown)
VH: B1 VH
VL: B2 VL with V38L
notes: as for B1
B4: Vk11 combined with the VH of Ab15 (antibody, V domains shown)
VH: B1 VH
VL: B2 VL with T7S, S12P, Q17E, P48S, L51V, R73G
notes: as for B1
B5: Vh2 combined with the VL of Ab15 (antibody, V domains shown)
VH: B1 VH with L5V, S80Y, V88A, I93V, V97A
VL: B2 VL with L42V, P45S
notes: as for B1
B6: Vk7 combined with the VH of Ab15 (antibody, V domains shown)
VH: B1 VH
VL: B2 VL with T7S, S12P, Q17E, T24K, R27Q, V38L, R73G
notes: as for B1
B7: Vk6 combined with the VH of Ab15 (antibody, V domains shown)
VH: B1 VH
VL: B2 VL with T24K, R27Q, V38L, R73G
notes: as for B1
B8: Vk12 combined with the VH of Ab15 (antibody, V domains shown)
VH: B1 VH
VL: B2 VL with T7S, S12P, Q17E, P48S, R73G
notes: as for B1
B9: Vk10 combined with the VH of Ab15 (antibody, V domains shown)
VH: B1 VH
VL: B1 VL with N22S, K24T, Q27R, G73R
notes: as for B1
B10: Vk5 combined with the VH of Ab15 (antibody, V domains shown)
VH: B1 VH
VL: B2 VL with T24R, R73G
notes: as for B1
B11: Vh1 combined with the VL of Ab15 (antibody, V domains shown)
VH: B1 VH with L5V, S80Y, V88A
VL: B2 VL with L42V, P45S
notes: as for B1
B12: Vk3 combined with the VH of Ab15 (antibody, V domains shown)
VH: B1 VH
VL: B2 VL with P45S
notes: as for B1
B13: Ab59 (antibody, human IgG2, kappa, V domains shown)
VH: B1 VH with T105P
VL: DIVMTQTPLSLSVTPGQPASISCTSSRSLLHSDGKTYVYWYVQKSGQPPQLLIYELSNRFSGVPDRFSGSGSRTDFTLKISRVEAEDVGVYYCMQYIEAPLTFGGGTKVEIKR
notes: format in the assays not spelled out
B14: Ab40 (antibody, human IgG2, kappa, V domains shown)
VH: B1 VH with R102M, Y104L
VL: B13 VL with T24R
notes: as for B13
B15: Ab41 (antibody, human IgG2, kappa, V domains shown)
VH: B1 VH with R102L, Y104F, T105P
VL: B13 VL with T24R
notes: as for B13

Molecular target: T1, soluble FGFR3c receptor protein (human, UniProt P22607 141-372)
T1 sequence: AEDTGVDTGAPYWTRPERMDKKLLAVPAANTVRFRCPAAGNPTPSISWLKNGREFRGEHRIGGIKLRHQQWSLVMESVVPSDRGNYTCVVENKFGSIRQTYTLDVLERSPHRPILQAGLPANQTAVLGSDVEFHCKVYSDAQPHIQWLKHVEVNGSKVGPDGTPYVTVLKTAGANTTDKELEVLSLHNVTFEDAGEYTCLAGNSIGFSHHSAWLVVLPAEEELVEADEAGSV
Experiment: BLI Octet RED96, antibody on anti-hIgG Fc tip
Experimental: (§1) Briefly, the Pall ForteBio Octet RED96 Bio-Layer Interferometry system was used to determine the specificity of anti-FGFR antibodies for FGFR1c, FGFR2c, FGFR3c, and FGFR4. The antibodies and soluble receptor proteins were prepared in PBS at a concentration of 300 nM. First, the candidate antibodies were immobilized on the surface of anti-human IgG Fc biosensor tips for 120 seconds. After immobilization, the biosensors were dipped in PBS solution for 60 seconds (baseline step) to assess assay drift, and determine loading level of antibodies. The baseline step was followed by an association step of 300 seconds wherein the binding interaction between the immobilized antibodies and soluble receptors was measured. Following the association step, the biosensors were dipped into PBS buffer for 600 seconds to measure the dissociation of the bound receptor proteins from the immobilized antibodies. Each binding response was measured and reported real time on a sensorgram trace. For data analysis, a simple 1:1 binding model was used which measures the rate of complex formation of one immobilized antibody and one soluble receptor protein.

| Binder | Kd [nM] | koff [s⁻¹] | kon [M⁻¹ s⁻¹] |
| --- | --- | --- | --- |
| B1 | 5.43 | 0.000749 | 138000 |
| B2 | 9.2 | 0.0011 | 120000 |
| B3 | 12.3 | 0.00138 | 113000 |
| B4 | 11.1 | 0.0013 | 117000 |
| B5 | 6.41 | 0.000775 | 121000 |
| B6 | 8.7 | 0.00104 | 120000 |
| B7 | 12.9 | 0.00157 | 121000 |
| B8 | 6.38 | 0.000806 | 126000 |
| B9 | 5.23 | 0.000701 | 134000 |
| B10 | 7 | 0.000891 | 127000 |
| B11 | 8.56 | 0.001 | 117000 |
| B12 | 7.97 | 0.00101 | 126000 |

Molecular target: soluble FGFR2c receptor protein (human, UniProt P21802 148-377)
Experiment: BLI Octet RED96, antibody on anti-hIgG Fc tip
Experimental: as §1

soluble FGFR2c receptor protein, sequence (P21802 148-377): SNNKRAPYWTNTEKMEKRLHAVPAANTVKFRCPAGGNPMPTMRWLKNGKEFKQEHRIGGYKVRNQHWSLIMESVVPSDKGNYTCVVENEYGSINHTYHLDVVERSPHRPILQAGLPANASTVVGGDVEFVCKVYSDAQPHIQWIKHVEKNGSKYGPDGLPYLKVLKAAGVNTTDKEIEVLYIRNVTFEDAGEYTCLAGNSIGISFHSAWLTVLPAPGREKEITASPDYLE

| Binder | Kd [nM] | koff [s⁻¹] | kon [M⁻¹ s⁻¹] |
| --- | --- | --- | --- |
| B1 | 7.35 | 0.00172 | 234000 |
| B2 | 10.8 | 0.00228 | 211000 |
| B3 | 12.7 | 0.00245 | 193000 |
| B4 | 10.9 | 0.00231 | 212000 |
| B5 | 7.55 | 0.00156 | 207000 |
| B6 | 13.1 | 0.00274 | 210000 |
| B7 | 14.3 | 0.00313 | 219000 |
| B8 | 9.76 | 0.0021 | 215000 |
| B9 | 6.49 | 0.00142 | 220000 |
| B10 | 8.88 | 0.00176 | 198000 |
| B11 | 10.9 | 0.0024 | 221000 |
| B12 | 10.3 | 0.0022 | 214000 |

Molecular target: T2, soluble FGFR4 receptor protein (human, UniProt P22455 144-369)
T2 sequence: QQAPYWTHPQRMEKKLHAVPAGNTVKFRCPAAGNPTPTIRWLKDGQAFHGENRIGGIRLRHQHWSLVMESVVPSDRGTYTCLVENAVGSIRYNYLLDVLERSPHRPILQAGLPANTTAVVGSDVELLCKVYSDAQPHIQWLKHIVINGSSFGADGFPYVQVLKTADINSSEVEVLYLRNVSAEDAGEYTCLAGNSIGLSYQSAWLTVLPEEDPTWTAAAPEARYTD
Experiment: BLI Octet RED96, antibody on anti-hIgG Fc tip
Experimental: as §1

| Binder | Kd [nM] | koff [s⁻¹] | kon [M⁻¹ s⁻¹] |
| --- | --- | --- | --- |
| B1 | 4.89 | 0.000692 | 142000 |
| B2 | 7.06 | 0.000888 | 126000 |
| B3 | 8.75 | 0.00105 | 120000 |
| B4 | 8.47 | 0.00106 | 125000 |
| B5 | 2.84 | 0.000492 | 173000 |
| B6 | 8.33 | 0.00101 | 121000 |
| B7 | 9.31 | 0.00112 | 120000 |
| B8 | 7.01 | 0.000925 | 132000 |
| B9 | 4.43 | 0.000585 | 132000 |
| B10 | 6.05 | 0.000752 | 124000 |
| B11 | 4.01 | 0.000682 | 170000 |
| B12 | 6.79 | 0.000855 | 126000 |

Molecular target: T3, soluble FGFR1c receptor protein (human, UniProt P11362 141-376)
T3 sequence: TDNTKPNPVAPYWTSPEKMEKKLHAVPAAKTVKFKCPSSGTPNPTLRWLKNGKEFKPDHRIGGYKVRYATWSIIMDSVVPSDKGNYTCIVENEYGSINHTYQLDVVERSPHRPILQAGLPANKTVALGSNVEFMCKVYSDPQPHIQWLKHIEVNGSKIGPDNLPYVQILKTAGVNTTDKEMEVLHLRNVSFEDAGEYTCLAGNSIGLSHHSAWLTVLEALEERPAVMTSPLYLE
Experiment: BLI Octet RED96, antibody on anti-hIgG Fc tip
Experimental: as §1

| Binder | Kd [nM] | koff [s⁻¹] | kon [M⁻¹ s⁻¹] |
| --- | --- | --- | --- |
| B1 | 2.39 | 0.000137 | 57200 |
| B2 | 5.74 | 0.000313 | 54500 |
| B3 | 4.7 | 0.000243 | 51700 |
| B4 | 7.62 | 0.000327 | 42900 |
| B5 | 5.41 | 0.000269 | 49700 |
| B6 | 5.84 | 0.000336 | 57600 |
| B7 | 6.45 | 0.000344 | 53400 |
| B8 | 6.51 | 0.000345 | 53000 |
| B9 | 5.33 | 0.000294 | 55200 |
| B10 | 3.98 | 0.000215 | 54100 |
| B11 | 7.49 | 0.000356 | 47500 |
| B12 | 4.79 | 0.000262 | 54600 |

Molecular target: T4, 6His-Fc-FGFR1c (human, UniProt P11362 141-376)
T4 construct: not shown: 6His tag and Fc as named in '6His-Fc-FGFR'
T4 sequence: T3 sequence
Experiment: competition ELISA, blocks 6His-Fc-FGFR1c binding to coated FGF2
Experimental: (§2) ELISA plates were coated with 50 ug/ml Heparin Sulfate (HSPG) (Sigma Aldrich) and incubated overnight at room temperature. Plates were then washed extensively with PBS containing 0.05% v/v Tween20 (PBST). Plates were then blocked with 2.5% BSA in PBST for one hour and washed extensively as before. 40-60 μL of FGF1 or FGF2 was then added to each well at 40 μg/ml and allowed to bind at room temperature for 2 hours. Plates were then washed extensively with PBST as before. Stock solutions of each 6His-Fc-FGFR (FGFR1-4) were prepared at 500 ng/ml in 2% v/v BSA-PBST and each antibody was prepared as a 2×-dilution series in 2% v/v BSA-PBST. Antibodies dilution series and 6His-Fc-FGFR1-4 were diluted in a 1:1 fashion and immediately added to the relative wells of the plate and allowed to bind for 2 hours at room temperature. Plates were washed extensively as before with PBST and the remaining fraction of bound 6His-Fc-FGFR was detected using a polyclonal-anti-His-6-HRP conjugated antibody (Abcam) for one hour at room temperature. After extensive washing with PBST, 50 μl of Pierce Chemiluminescent substrate (Thermo Fisher Scientific, Rockford, USA) was added and plates were measured on an Envision plate reader (Perkin Elmer). Raw data was background corrected and plotted using Prism software. […]

| Binder | IC50 [nM] |
| --- | --- |
| B13 | 2.22 |
| B14 | 4.85 |
| B15 | 3.53 |

Molecular target: T5, 6His-Fc-FGFR4 (human, UniProt P22455 144-369)
T5 construct: not shown: 6His tag and Fc as named in '6His-Fc-FGFR'
T5 sequence: T2 sequence
Experiment: competition ELISA, blocks 6His-Fc-FGFR4 binding to coated FGF2
Experimental: as §2

| Binder | IC50 [nM] |
| --- | --- |
| B13 | ~6.86 |
| B14 | 17.5 |
| B15 | 9.87 |
